Sequences and labels used below:
B1: Manganese-dependent inorganic pyrophosphatase, P37487 (parent)
chain: MEKILIFGHQNPDTDTICSAIAYADLKNKLGFNAEPVRLGQVNGETQYALDYFKQESPRLVETAANEVNGVILVDHNERQQSIKDIEEVQVLEVIDHHRIANFETAEPLYYRAEPVGCTATILNKMYKENNVKIEKEIAGLMLSAIISDSLLFKSPTCTDQDVAAAKELAEIAGVDAEEYGLNMLKAGADLSKKTVEELISLDAKEFTLGSKKVEIAQVNTVDIEDVKKRQAELEAVISKVVAEKNLDLFLLVITDILENDSLALAIGNEAAKVEKAFNVTLENNTALLKGVVSRKKQVVPVLTDAMAE

Here are results for six variants from FireProtDB (doi:10.1021/bi047926u).

“And” between values parts separate entries of the source, which are not always exact repeats. Equal entries are not always repeated.

Broadly, the Tm is the temperature at which the thermal transition is half complete.

In the first data set the parent is B1. To be noted: Bacillus subtilis (strain 168); pH 7.2; Thermal; CD; TES-KOH 21 mM; KCl 4 mM; reversible: No; structure 1K23; whole UniProt chain shown.
For MEKILIFGHQNPDTDTICSAIAYADLKNKLGFNAEPVRLGQVNGETQYALDYFKQESPRLVETAANEVNGVILVDHNERQQSIKDIEEVQVLEVIDHQRIANFETAEPLYYRAEPVGCTATILNKMYKENNVKIEKEIAGLMLSAIISDSLLFKSPTCTDQDVAAAKELAEIAGVDAEEYGLNMLKAGADLSKKTVEELISLDAKEFTLGSKKVEIAQVNTVDIEDVKKRQAELEAVISKVVAEKNLDLFLLVITDILENDSLALAIGNEAAKVEKAFNVTLENNTALLKGVVSRKKQVVPVLTDAMAE [H98Q], the Tm is 48 °C.
Same read-out and setting: next, MEKILIFGHQNPDTDTICSAIAYADLKNKLGFNAEPVRLGQVNGETQYALDYFKQESPRLVETAANEVNGVILVDHNERQQSIKDIEEVQVLEVIDHHRIANFETAEPLYYRAEPVGCTATILNKMYKENNVKIEKEIAGLMLSAIISDSLLFKSPTCTDQDVAAAKELAEIAGVDAEEYGLNMLKAGADLSKKTVEELISLEAKEFTLGSKKVEIAQVNTVDIEDVKKRQAELEAVISKVVAEKNLDLFLLVITDILENDSLALAIGNEAAKVEKAFNVTLENNTALLKGVVSRKKQVVPVLTDAMAE [D203E]: 42 °C; MEKILIFGHQNPETDTICSAIAYADLKNKLGFNAEPVRLGQVNGETQYALDYFKQESPRLVETAANEVNGVILVDHNERQQSIKDIEEVQVLEVIDHHRIANFETAEPLYYRAEPVGCTATILNKMYKENNVKIEKEIAGLMLSAIISDSLLFKSPTCTDQDVAAAKELAEIAGVDAEEYGLNMLKAGADLSKKTVEELISLDAKEFTLGSKKVEIAQVNTVDIEDVKKRQAELEAVISKVVAEKNLDLFLLVITDILENDSLALAIGNEAAKVEKAFNVTLENNTALLKGVVSRKKQVVPVLTDAMAE [D13E]: 44 °C and 42 °C.
MEKILIFGQQNPDTDTICSAIAYADLKNKLGFNAEPVRLGQVNGETQYALDYFKQESPRLVETAANEVNGVILVDHNERQQSIKDIEEVQVLEVIDHHRIANFETAEPLYYRAEPVGCTATILNKMYKENNVKIEKEIAGLMLSAIISDSLLFKSPTCTDQDVAAAKELAEIAGVDAEEYGLNMLKAGADLSKKTVEELISLDAKEFTLGSKKVEIAQVNTVDIEDVKKRQAELEAVISKVVAEKNLDLFLLVITDILENDSLALAIGNEAAKVEKAFNVTLENNTALLKGVVSRKKQVVPVLTDAMAE [H9Q]: the Tm stood at 54 °C.
The same measure, in the same setting: next, MEKILIFGHQNPDTDTICSAIAYADLKNKLGFNAEPVRLGQVNGETQYALDYFKQESPRLVETAANEVNGVILVDHNERQQSIKDIEEVQVLEVIDHHRIANFETAEPLYYRAEPVGCTATILNKMYKENNVKIEKEIAGLMLSAIISESLLFKSPTCTDQDVAAAKELAEIAGVDAEEYGLNMLKAGADLSKKTVEELISLDAKEFTLGSKKVEIAQVNTVDIEDVKKRQAELEAVISKVVAEKNLDLFLLVITDILENDSLALAIGNEAAKVEKAFNVTLENNTALLKGVVSRKKQVVPVLTDAMAE [D149E]: 52 °C and 47 °C.
Same read-out and setting: next, MEKILIFGHQNPDTDTICSAIAYADLKNKLGFNAEPVRLGQVNGETQYALDYFKQESPRLVETAANEVNGVILVDQNERQQSIKDIEEVQVLEVIDHHRIANFETAEPLYYRAEPVGCTATILNKMYKENNVKIEKEIAGLMLSAIISDSLLFKSPTCTDQDVAAAKELAEIAGVDAEEYGLNMLKAGADLSKKTVEELISLDAKEFTLGSKKVEIAQVNTVDIEDVKKRQAELEAVISKVVAEKNLDLFLLVITDILENDSLALAIGNEAAKVEKAFNVTLENNTALLKGVVSRKKQVVPVLTDAMAE [H76Q]: 59 °C.

Staying with this data set, now noted: Bacillus subtilis (strain 168); pH 7.2; Thermal; CD; TES-KOH 21 mM; KCl 4 mM; transition: 3; reversible: No; structure 1K23; whole UniProt chain shown.
In the case of MEKILIFGHQNPETDTICSAIAYADLKNKLGFNAEPVRLGQVNGETQYALDYFKQESPRLVETAANEVNGVILVDHNERQQSIKDIEEVQVLEVIDHHRIANFETAEPLYYRAEPVGCTATILNKMYKENNVKIEKEIAGLMLSAIISDSLLFKSPTCTDQDVAAAKELAEIAGVDAEEYGLNMLKAGADLSKKTVEELISLDAKEFTLGSKKVEIAQVNTVDIEDVKKRQAELEAVISKVVAEKNLDLFLLVITDILENDSLALAIGNEAAKVEKAFNVTLENNTALLKGVVSRKKQVVPVLTDAMAE [D13E], the Tm was found to be 69 °C.
